One block for each molecule: values may come before it.
Key:
[1] = test system: AP-1 dependent reporter gene; assay: AP-1 dependent reporter gene (TRE-lacZ), microinjection into Rat-1 cells; type: cell-based; conditions: for suppression of AP-1 reporter induction caused by anti-RKIP antibodies: MEK inhibitors given 1 h before microinjection
Text: In one embodiment, the RKIP protein inhibiting agent can be an antibody specifically recognizing an RKIP motif. For example, to examine the relevance of the interaction between RKIP and the kinases of the Raf/MEK/ERK module in mammalian cells, endogenous RKIP \was inhibited by antibody microinjection. Since the AP-1 transcription factor is a major target of Raf signaling (Kortenjann et al. Mol. Cell. Biol. 14:4815-4824, 1994;Rapp et al., Oncogene 9:3493-3498, 1994; Kolch et al. Oncogene 8:361-370, 1993), the influence of RKIP on AP-1 activity was tested as shown in FIG. 3.
Microinjections of antibodies and reporter genes were performed as described previously (Lavinsky et al. Proc. Natl. Acad. Sci. USA 95:2920-2925, 1998; Rose et al. J. Cell. Biol. 119:1405-1411, 1992). Briefly, quiescent Rat-1 cells were microinjected with the reporter plasmids and antibodies and either left unstimulated or treated with 200 ng/ml TPA or 20 μg/ml forskolin. The RKIP antiserum was purified over a GST-RKIP affinity column. NIH3T3 cells were stained with an activation specific anti-phospho-ERK monoclonal antibody (Sigma). ERK phosphorylation was quantified by densitometry. For this purpose areas with microinjected cells were randomly photographed, and the staining intensity of whole individual cells was measured using the PcBAS software.
(§1) In one embodiment, the present invention provides a method of identifying a cell growth modulating agent by analyzing the effect of a candidate agent on the expression of an RKIP responsive reporter. For example, to show the effect of the RKIP on the activity of the AP-1 mediated transcription, NIH 3T3 cells were co-transfected with a 3xTRE-CAT reporter and the above described expression plasmids. NIH 3T3 and 208F cells were transfected in 6-well plates with 1 μg of pCMV5-BXB and 3 μg of p53/RKIP using Superfect (Qiagen).
AP-1 luciferase assays and microinjection experiments with affinity-purified RKIP antiserum and TRE-lacZ reporter plasmids were carried out as previously described (Yeung et al. Nature, 401:173-177, 1999). […] This induction was due to the activation of MEK, since it could be suppressed by two structurally different MEK inhibitors, U0126 and PD98059 (FIG. 7(a)). […] These antibodies are therefore useful tools for investigating the molecular mechanism by which RKIP works. The RKIP antiserum interfered with the binding of Raf-1 and MEK to RKIP (FIG. 7(b)). […] Furthermore, the RKIP antibodies reversed the inhibitory effect of RKIP on MEK phosphorylation by Raf-1 (FIG. 7(c)).

Raf-1 [2] = biological target: T1, Raf-1 (Homo sapiens, UniProt P04049); assay: In vitro kinase assay of reconstituted Raf/MEK/ERK cascade: Raf-1; type: biochemical
T1 construct: GST (cleaved yes); made in house; host or cells: Sf-9 insect cells
Description: (§2) Kinase assays were done as described in Hafner et al. (Mol. Cell. Biol. 14:6696-6703, 1994). Activated Raf-1 was generated by co-expressing GST-Raf-1 with v-Ras and Lck in Sf-9 cells and collected on glutathione Sepharose beads. Subsequent thrombin cleavage released Raf-1 which was fully active and >90% pure. To activate MEK and ERK in vitro, 20 ng activated Raf-1 was incubated with 40 ng purified His/MEK-1 and 250 ng GST-ERK-2 in Raf kinase buffer containing 20 μM ATP for 20 minutes at 30° C. To measure kinase activities at individual steps the respective downstream components were omitted. The activation reactions were diluted into 50 μl Raf kinase buffer containing 20 μm ATP to yield equimolar concentrations of the kinases to be assayed and incubated with increasing amounts of purified RKIP on ice for 10 minutes. Similar assays may be performed with smaller polypeptides comprising RKIP motifs, or even with a peptide consisting essentially of an RKIP motif as defined herein. Then, 2 μCi [^32P]-γ-ATP and recombinant substrates were added and incubated for 20 minutes at 30° C. As substrates 200 ng kinase negative His/MEK-1 was used for Raf, 1 μg kinase negative GST-ERK for MEK, and 1 μg GST-ELK (New England Biolabs) for ERK. In some assays 1 μg GST-MEK was used as Raf-1 substrate with identical results.

MEK [3] = assay: In vitro kinase assay: MEK; type: biochemical
Description: as §2, with “results. […]” for “results.”

ERK [4] = biological target: T2, ERK (Homo sapiens, UniProt P28482); assay: In vitro kinase assay: ERK; type: biochemical; conditions: purified RKIP, recombinant proteins in vitro
T2 construct: GST; made in house
Description: as §2

MEKK-1 = assay: MEK phosphorylation by immunoprecipitated MEKK-1; type: biochemical; conditions: MEKK-1 immunoprecipitated from COS-1 cells, knMEK substrate
Description: “BSA” indicates use of 15 μM bovine serum albumin; “Co.” substrate alone; and “kn”, kinase negative mutant. […] HA-MEK-DD or HA-MEK-1 expressed in COS-1 cells were immunoprecipitated with anti-HA antibodies from serum starved cells or TPA treated cells, respectively, and assayed for kinase activity. […] MEKK-1 was immunoprecipitated from transiently transfected COS-1 cells and used to phosphorylate knMEK.

Raf-1-MEK complexes = biological target: T3, Raf-1-MEK complexes (Homo sapiens, UniProt P04049); assay: Disruption of the Raf-1-MEK complex on glutathione Sepharose beads; type: binding; conditions: in vitro, purified RKIP
T3 construct: made in house; host or cells: Sf-9 insect cells
Description: In vitro binding assays contained 5 μg of GST-fusion protein immobilized on glutathione Sepharose beads and 0.5-5 μg purified recombinant protein in PBS supplemented with 10% bovine serum as nonspecific competitor. Sf-9 cell lysates were used as source of Raf proteins (Hafner et al., 1994, Mol. Cell. Biol. 14: 6696-6703). After incubation for 1 hour at 4° C. the samples were washed 4 times with PBS, resolved by SDS-PAGE and blotted. The blots were developed using ECL (Amersham).
GST-MEK and Raf-1 were co-expressed in Sf-9 cells. The GST-MEK-Raf-1 complex was purified by adsorption to glutathione Sepharose beads, washed, and resuspended in PBS. Purified RKIP was added at the concentrations indicated. After 1 hour at 4° C., the GST-MEK beads were washed three times with PBS and examined for associated proteins by Western blotting (WB) with the indicated antisera.

AP-1 activity = assay: 3xTRE-CAT reporter in NIH 3T3 cells co-transfected with RKIP; type: cell-based; conditions: RKIP transfection
Description: as §1

NIH 3T3 and 208F cells = assay: Transformation assays (morphological transformation, focus formation, soft agar); type: cell-based
Text: Additionally, NIH 3T3 cells were transfected with BXB, alone or together with RKIP (linked to neomycin/G418 resistance encoding gene). The G418-resistant colonies were counted and scored for morphological transformation. Aliquots of the same transfection were allowed to grow to confluency without drug and were scored for focus formation. A BXB-transformed cell line was infected with LXSH-RKIP retrovirus or LXSH (hygromycin resistant) and seeded in soft agar in the presence of hygromycin. […] The data are expressed as the reduction in focus formation relative to focus formation upon co-transfection with empty vector (set to 100%).

Raf-1 [5] = assay: Raf-1 immunoprecipitate kinase activity in transfected COS-1 cells; type: cell-based; conditions: co-transfection of RKIP
Description: (§3) The COS-1 cells were transfected as described (Catling et al., 1995, Mol. Cell. Biol. 15: 5214-5225) with 2 μg of HA-ERK-2, BXB, MEK and MEK-DD plasmids and the indicated amounts of p353/RKIP. The total amount of transfected DNA was kept constant using the appropriate vectors as carrier DNA. […] In addition, 0.1 μg of an AP1-Luc reporter was transfected for reporter gene assays. 48 hours post-transfection cells were serum starved for 20 hours and either left untreated or treated with TPA (200 ng/ml) or serum for 5 hours before being collected. Cells were lysed and cell extracts were used for immunoblotting or assayed for luciferase activity. For the GFP sorting experiments 5×10^6 NIH 3T3 cells were electroporated with either 100 μg pCMVori, 50 μg pCMV-GFP, and 50 μg pHACT or 100 μg pASC143, 50 μg CMV-GFP, and 50 μg CMV-HAC. Two days later cells were trypsinized and sorted for green fluorescent cells by preparative FACS. 100,000 GFP-positive cells were lysed in SDS-gel sample buffer and immunoblotted.
(§4) COS-1 cells were transiently transfected with HA-MEK and increasing amounts of RKIP expression vectors. Serum starved cells were stimulated with 100 ng/ml TPA for 20 minutes, and the kinase activities of Raf-1 and HA-MEK immunoprecipitates were measured.

MEK [6] = biological target: T4, MEK (Homo sapiens, UniProt Q02750); assay: HA-MEK immunoprecipitate kinase activity in transfected COS-1 cells; type: cell-based; conditions: co-transfection of RKIP, dose dependent
T4 construct: expressed in transfected cells; host or cells: COS-1
Description: as §3, §4

ERK [7] = assay: HA-ERK immunoprecipitate kinase activity in transfected COS-1 cells; type: cell-based
Description: as §3
COS-1 cells were transfected with the indicated expression plasmids plus increasing amounts of RKIP. HA-ERK-2 was immunoprecipitated and assayed with MBP.
COS-1 cells were transfected with the indicated expression vectors and the kinase activity of HA-ERK immunoprecipitates was examined.

GST-Raf-1 = biological target: T5, GST-Raf-1 (Homo sapiens, UniProt P04049); assay: Binding of purified RKIP to inactive and activated GST-Raf-1 beads; conditions: recombinant RKIP produced in E. coli
T5 construct: made in house; host or cells: Sf-9 insect cells
Description: Activated GST-Raf-1 was produced in Sf-9 insect cells co-infected with RasV12 and Lck, which results in a robust activation of the catalytic activity. GST-Raf-1 proteins were purified by adsorption to glutathione Sepharose beads and incubated with recombinant RKIP produced in E. coli. […] We also tested whether activation affected the binding of MEK and ERK to RKIP. Purified MEK and ERK were phosphorylated in vitro with recombinant Raf-1 or Raf-1 plus MEK, respectively, and incubated with GST or GST-RKIP beads. The binding reaction products were washed, separated on SDS gels, and immunoblotted with the appropriate antisera. […] However, since only small fractions of MEK and ERK become phosphorylated, we also carried out the phosphorylation in the presence of […] The blots were autoradiographed to detect phosphorylated MEK and ERK and were subsequently stained with the cognate antisera to visualize total protein bound. Under these conditions, binding of phosphorylated MEK and ERK to RKIP was evident.

[8] = test system: cell lines resistant to apoptosis; assay: Sensitivity to apoptotic stimuli on RKIP expression; type: cell-based; conditions: expression of RKIP; data not shown
[9] = microinjection of an RKIP expression vector
[10] = purified RKIP, recombinant proteins in vitro

T2 sequence (P28482 whole entry): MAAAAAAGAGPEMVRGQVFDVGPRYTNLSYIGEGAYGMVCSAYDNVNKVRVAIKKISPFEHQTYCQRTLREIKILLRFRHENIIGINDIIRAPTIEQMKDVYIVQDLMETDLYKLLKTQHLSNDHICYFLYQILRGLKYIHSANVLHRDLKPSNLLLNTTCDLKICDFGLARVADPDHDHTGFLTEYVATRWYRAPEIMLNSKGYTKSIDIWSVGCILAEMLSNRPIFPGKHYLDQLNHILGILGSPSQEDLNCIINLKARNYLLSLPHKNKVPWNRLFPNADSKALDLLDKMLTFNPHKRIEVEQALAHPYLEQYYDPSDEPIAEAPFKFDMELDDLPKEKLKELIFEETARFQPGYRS

Molecule: COc1cccc(-c2cc(=O)c3ccccc3o2)c1N [PD98059, reference compound]
suppression of AP-1 reporter induction caused by anti-RKIP antibodies [1]: suppressed

Molecule: N#CC(=C(/N)Sc1ccccc1N)/C(C#N)=C(\N)Sc1ccccc1N [U0126, reference compound]
suppression of AP-1 reporter induction caused by anti-RKIP antibodies [1]: suppressed

mechanism of Raf-1 inhibition (Raf-1 [2]; Lineweaver-Burk plot, GST-MEK-1 substrate): competitive inhibitor | Raf-1 autophosphorylation or phosphorylation of MBP by Raf-1 (Raf-1 [2]; in vitro): did not interfere | phosphorylation of MEK by Raf-1 (Raf-1 [2]; [10]): decreased | ERK phosphorylation by MEK (MEK [3]; [10]): did not inhibit | ELK phosphorylation by ERK (ERK [4]): did not inhibit | physical interaction between Raf-1 and MEK (Raf-1-MEK complexes): disrupted | activation of MEK by TPA (MEK [6]): strongly inhibited | RKIP binding to activated versus inactive GST-Raf-1 (GST-Raf-1): Less RKIP bound
B1: RKIP: Raf kinase inhibitor protein; used as purified recombinant protein or expressed from vector p353/RKIP (protein, UniProt P30086 2-187, looked up)
Phosphatidylethanolamine-bindi …: PVDLSKWSGPLSLQEVDEQPQHPLHVTYAGAAVDELGKVLTPTQVKNRPTSISWDGLDSGKLYTLVLTDPDAPSRKDPKYREWHHFLVVNMKGNDISSGTVLSDYVGSGPPKGTGLHRYVWLVYEQDRPLKCDEPILSNRSGDHRGKFKVASFRKKYELRAPVAGTCYQAEWDDYVPKLYEQLSGK
AP-1 induction by TPA and BXB [1, 9]: impaired | AP-1 stimulation by ERK-1 [1, 9]: did not interfere | inhibition of MEK-DD or MEK activated by TPA treatment of cells (MEK [3]; immunoprecipitated from COS-1 cells): failed to inhibit | MEK phosphorylation by MEKK-1 (MEKK-1): did not prevent | basal and BXB induced AP-1 activity (AP-1 activity): diminished | induction of foci by v-fos or mutationally activated MEK alleles (NIH 3T3 and 208F cells; RKIP overexpression): only to a small extent | v-src transformation (NIH 3T3 and 208F cells; RKIP overexpression): failed to inhibit | total colony yield (NIH 3T3 and 208F cells; RKIP overexpression with BXB): decreased | transformation efficiency of BXB (NIH 3T3 and 208F cells; RKIP overexpression, morphological transformation, focus formation, anchorage independent growth): significantly reduced | activation of Raf-1 by TPA (Raf-1 [5]): only a small influence | ERK activation by MEK-DD (ERK [7]; RKIP co-transfection): did not affect | activation of ERKs by v-Ras or v-Src oncogenes (ERK [7]; RKIP overexpression): downregulated | BXB induced activation of ERK (ERK [7]; increasing amounts of RKIP expression plasmid, dose dependent): inhibited | sensitivity to apoptotic stimuli [8]: rendered sensitive
